The source of these data is publication PMC10491789.

In this experiment the target is GPI-T (wild-type human GPI transamidase complex, purified by the same strategy as GPI-T^sub) (human) (UniProt O43292). Briefly: tandem affinity co-purification; co-expressed in HEK293T-derived knockout cells; solubilised with 1% LMNG/0.1% CHS, exchanged to digitonin; Strep-Tactin beads (Strep tag on PIGU) then Ni-NTA (His tag on (pro)ULBP2); 4 °C; 150 mM NaCl, Tris-HCl pH 8.0.

Consider “ULBP2 (His-tagged GPI-anchored product, co-expressed with wild-type GPI-T) (from UniProt Q9BZM5 27-217) (natural protein)”, for which the yield during the second affinity chromatography step stood at 4%.
